From the supplement of paper PMC7877785
± gives the uncertainty stated by the source.

Assay: self-splicing fitness, log relative to wild type (ln ratio); higher = more splicing; Tetrahymena group I intron in knt gene, E. coli kanamycin selection, DiMSum; sequences stand for … in CUCUCU…GGAGGGAAAAGUUAUCAGGCAUGCACCUGGUAGCUAGUCUUUAAACCAAUAGAUUGCAUCGGUUUAAAAGGCAAGACCGUCAAAUUGCGGGAAAGGGGUCAACAGCCGUUCAGUACCAAGUCUCAGGGGAAACUUUGAGAUGGCCUUGCAAAGGGUAUGGUAAUAAGCUGACGGACAUGGUCCUAACCACGCAGCCAAGUCCUAAGUCAACAGAUCUUCUGUUGAUAUGGAUGCAGUUCACAGACUAAAUGUCGGUCGGGGAAGAUGUAUUCUUCUCAUAAGAUAUAGUCGGACCUCUCCUUAAUGGGAGCUAGCGGAUGAAGUGAUGCAACACUGGAGCCGCUGGGAACUAAUUUGUAUGCGAAAGUAUAUUGAUUAGUUUUGGAGUACUCGUGGUCG
Outline: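 A randomised library covering all eight P1ex-region intron nucleotides was built with the intron in the knt kanamycin-resistance gene on pET-22b(+) and held in E. coli BL21(DE3). Cells were grown overnight at 37°C or 30°C on LB agar, with or without 25 μg/mL kanamycin, plus 100 μg/mL carbenicillin, 50 μM IPTG and 0.2% rhamnose, and pooled colonies were amplicon-sequenced on an Illumina HiSeq 2500. DiMSum fitness is the error-weighted combination of wild-type-normalised replicate fold changes, kanamycin versus none.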

Sequence | self-splicing fitness (ln) (30 °C) | self-splicing fitness (ln) (37 °C)
CCGGAGCAAUAUUACGCCAG | -3.49 ± 0.2 | -2.31 ± 0.24
CCGGAGCAAUAUUACGCCGA | -3.86 ± 0.41 | 
CCGGAGCAAUAUUACGCGCU | -1.24 ± 0.17 | 
CCGGAGCAAUAUUACGCGUC |  | -2.18 ± 0.39
CCGGAGCAAUAUUACGGGGG | -3.5 ± 0.2 | -1.83 ± 0.17
CCGGAGCAAUAUUACGGGGU | -3.59 ± 0.2 | -2.93 ± 0.26
CCGGAGCAAUAUUACGGUUA | -2.44 ± 0.35 | -2.64 ± 0.48
CCGGAGCAAUAUUACGGUUG | -1.16 ± 0.14 | -1.25 ± 0.16
CCGGAGCAAUAUUACGUAAA | -3.29 ± 0.25 | -2.09 ± 0.47
CCGGAGCAAUAUUACGUAAC | -2.38 ± 0.38 | -1.45 ± 0.43
CCGGAGCAAUAUUACGUGAU | -2.17 ± 0.19 | -1.54 ± 0.3
CCGGAGCAAUAUUACGUUCA | -1.23 ± 0.17 | -1.63 ± 0.29
CCGUAGCAAUAUUACGAACG | -1.07 ± 0.12 | -0.439 ± 0.15
CCGUAGCAAUAUUACGAAUU | -3.75 ± 0.25 | -2.85 ± 0.34
CCGUAGCAAUAUUACGAGUC | -2.86 ± 0.23 | 
CCGUAGCAAUAUUACGAUAC | -3.22 ± 0.24 | 
CCGUAGCAAUAUUACGAUCU |  | -2.46 ± 0.45
CCGUAGCAAUAUUACGAUGU | -4.42 ± 0.33 | -1.79 ± 0.18
CCGUAGCAAUAUUACGCAGA | -2.96 ± 0.25 | -2.74 ± 0.24
CCGUAGCAAUAUUACGCCUU | -3.08 ± 0.44 | -2.19 ± 0.31
CCGUAGCAAUAUUACGCGGC | -2.94 ± 0.19 | -2.51 ± 0.27
CCGUAGCAAUAUUACGGCGU | -2.57 ± 0.23 | -1.86 ± 0.25
CCGUAGCAAUAUUACGGGAG | -3.35 ± 0.19 | -2.97 ± 0.18
CCGUAGCAAUAUUACGGUCC | -4.14 ± 0.3 | -2.93 ± 0.28
CCGUAGCAAUAUUACGUAGC | -3.91 ± 0.21 | -2.63 ± 0.22

Sequence | self-splicing fitness (ln) (30 °C) | self-splicing fitness (ln) (37 °C)
CCGUAGCAAUAUUACGUAUC |  | -2.65 ± 0.29
CCGUAGCAAUAUUACGUGGU | -4.27 ± 0.24 | -2.12 ± 0.14
CCGUAGCAAUAUUACGUUGC | -3.53 ± 0.28 | -2.04 ± 0.43
CCGUAGCAAUAUUACGUUUA | -3.43 ± 0.44 | -3.04 ± 0.4
CCUAAGCAAUAUUACGAAAA | -3.53 ± 0.28 | -2.44 ± 0.19
CCUAAGCAAUAUUACGAAAC | -3.48 ± 0.33 | 
CCUAAGCAAUAUUACGAAUA | -3.51 ± 0.35 | 
CCUAAGCAAUAUUACGAUUU | -3.8 ± 0.25 | -0.794 ± 0.23
CCUAAGCAAUAUUACGCAUG | -3.6 ± 0.33 | -1.51 ± 0.23
CCUAAGCAAUAUUACGCGCG | -3.42 ± 0.39 | -1.9 ± 0.25
CCUAAGCAAUAUUACGCGUG | -3.34 ± 0.13 | -2.48 ± 0.13
CCUAAGCAAUAUUACGCUCG |  | -2.15 ± 0.3
CCUAAGCAAUAUUACGGAUA | -4.31 ± 0.26 | -4.12 ± 0.31
CCUAAGCAAUAUUACGGGGA | -2.84 ± 0.15 | -1.92 ± 0.13
CCUAAGCAAUAUUACGGUCU | -3.89 ± 0.31 | -2.94 ± 0.34
CCUAAGCAAUAUUACGGUGG | -2.76 ± 0.11 | -2.03 ± 0.14
CCUAAGCAAUAUUACGGUUA | -3.71 ± 0.16 | -2.67 ± 0.14
CCUAAGCAAUAUUACGGUUG | -3.92 ± 0.19 | -2.07 ± 0.15
CCUAAGCAAUAUUACGUAAC | -2.97 ± 0.17 | -1.77 ± 0.29
CCUAAGCAAUAUUACGUCGC | -2.21 ± 0.16 | -1.85 ± 0.2
CCUAAGCAAUAUUACGUGAA |  | -1.96 ± 0.26
CCUAAGCAAUAUUACGUGAU | -4.46 ± 0.23 | -2.71 ± 0.21
CCUAAGCAAUAUUACGUGCG | -2.59 ± 0.13 | -1.03 ± 0.12
CCUAAGCAAUAUUACGUGUU | -3.2 ± 0.14 | -3.07 ± 0.19
CCUCAGCAAUAUUACGAGAG | -2.75 ± 0.13 | -1.47 ± 0.1

Sequence | self-splicing fitness (ln) (30 °C) | self-splicing fitness (ln) (37 °C)
CCUCAGCAAUAUUACGAGCC | -0.962 ± 0.25 | -0.207 ± 0.41
CCUCAGCAAUAUUACGAUAA | -2.82 ± 0.16 | -3.35 ± 0.32
CCUCAGCAAUAUUACGAUAU | -4.25 ± 0.25 | -0.929 ± 0.15
CCUCAGCAAUAUUACGCCUC | -3.76 ± 0.35 | -1.75 ± 0.31
CCUCAGCAAUAUUACGCUCG | -2.8 ± 0.16 | -2.96 ± 0.24
CCUCAGCAAUAUUACGGGCG | -1.59 ± 0.069 | -0.619 ± 0.074
CCUCAGCAAUAUUACGGUAA | -3.97 ± 0.25 | -2.47 ± 0.18
CCUCAGCAAUAUUACGGUCG | -0.693 ± 0.069 | -0.505 ± 0.089
CCUCAGCAAUAUUACGGUGA | -3.68 ± 0.28 | -2.28 ± 0.2
CCUCAGCAAUAUUACGGUUC | -3.33 ± 0.14 | -3.16 ± 0.27
CCUCAGCAAUAUUACGUACU | -3.42 ± 0.22 | -1.98 ± 0.22
CCUCAGCAAUAUUACGUAUA | -3.44 ± 0.19 | -3.16 ± 0.32
CCUCAGCAAUAUUACGUCAC | -3.97 ± 0.27 | -2.36 ± 0.26
CCUCAGCAAUAUUACGUCUA | -3.41 ± 0.26 | -2.46 ± 0.28
CCUCAGCAAUAUUACGUGCG | -2.51 ± 0.11 | -1.71 ± 0.12
CCUCAGCAAUAUUACGUUCA | -2.61 ± 0.16 | -2.68 ± 0.3
CCUCAGCAAUAUUACGUUGA | -3.03 ± 0.14 | -2.28 ± 0.14
CCUGAGCAAUAUUACGAAGA | -1.76 ± 0.18 | -1.69 ± 0.19
CCUGAGCAAUAUUACGAAGG | -3.87 ± 0.3 | -2.36 ± 0.32
CCUGAGCAAUAUUACGACAG | -1.3 ± 0.14 | -0.663 ± 0.15
CCUGAGCAAUAUUACGAGAU | -1.86 ± 0.16 | -2.09 ± 0.23
CCUGAGCAAUAUUACGAGCA | -3.49 ± 0.27 | -3.47 ± 0.3
CCUGAGCAAUAUUACGAGGA | -3.04 ± 0.45 | -1.57 ± 0.18
CCUGAGCAAUAUUACGCCAA | -2.85 ± 0.44 | 
CCUGAGCAAUAUUACGCCGC | -2.83 ± 0.5 | 0.153 ± 0.33

Sequence | self-splicing fitness (ln) (30 °C) | self-splicing fitness (ln) (37 °C)
CCUGAGCAAUAUUACGCCUU | -2.73 ± 0.28 | -2.01 ± 0.2
CCUGAGCAAUAUUACGCUCG | -2.14 ± 0.43 | -1.7 ± 0.41
CCUGAGCAAUAUUACGGAAU | -4.68 ± 0.23 | -2.85 ± 0.16
CCUGAGCAAUAUUACGGCUA | -1.85 ± 0.33 | 
CCUGAGCAAUAUUACGGCUC | -3.81 ± 0.37 | -2.97 ± 0.41
CCUGAGCAAUAUUACGGUAG | -3.11 ± 0.2 | -2.26 ± 0.2
CCUGAGCAAUAUUACGGUGG | -3.67 ± 0.37 | -1.4 ± 0.2
CCUGAGCAAUAUUACGUGGG | -3.25 ± 0.15 | -2.85 ± 0.2
CCUGAGCAAUAUUACGUUUC | -3.69 ± 0.25 | -2.81 ± 0.28
CCUUAGCAAUAUUACGACCC | -2.95 ± 0.44 | 
CCUUAGCAAUAUUACGAGUU | -3.96 ± 0.27 | -2.56 ± 0.21
CCUUAGCAAUAUUACGAUAC | -1.67 ± 0.44 | 
CCUUAGCAAUAUUACGCACA | -1.93 ± 0.28 | -1.06 ± 0.21
CCUUAGCAAUAUUACGCACU | -2.46 ± 0.41 | -1.29 ± 0.22
CCUUAGCAAUAUUACGCUAC | -2.32 ± 0.27 | -2.26 ± 0.27
CCUUAGCAAUAUUACGCUUC | -3.71 ± 0.31 | -1.83 ± 0.24
CCUUAGCAAUAUUACGGAAA | -3.07 ± 0.24 | 
CCUUAGCAAUAUUACGGAUC | -3.45 ± 0.47 | -3.6 ± 0.34
CCUUAGCAAUAUUACGGCGA | -4.24 ± 0.39 | -1.96 ± 0.2
CCUUAGCAAUAUUACGGGAC | -3.96 ± 0.46 | 
CCUUAGCAAUAUUACGUACA | -3.88 ± 0.42 | -2.22 ± 0.3
CCUUAGCAAUAUUACGUACU | -2.32 ± 0.23 | -1.99 ± 0.21
CCUUAGCAAUAUUACGUAUU | -4.45 ± 0.29 | -2.82 ± 0.22
CCUUAGCAAUAUUACGUCGU | -3.7 ± 0.25 | -2.13 ± 0.22
CCUUAGCAAUAUUACGUGGU | -4.41 ± 0.36 | -1.91 ± 0.23
